The values that follow come from patent US20240270853A1 (Chugai, published 2024).

T1: Recombinant mouse DDR2 ECD-Fc (R&D systems, Cat. No. 7479-DR-050) (mouse, UniProt Q62371 22-399, biotinylated)
T1 construct: Bought protein; not shown: Fc part of the bought fusion protein, not described
T1 sequence: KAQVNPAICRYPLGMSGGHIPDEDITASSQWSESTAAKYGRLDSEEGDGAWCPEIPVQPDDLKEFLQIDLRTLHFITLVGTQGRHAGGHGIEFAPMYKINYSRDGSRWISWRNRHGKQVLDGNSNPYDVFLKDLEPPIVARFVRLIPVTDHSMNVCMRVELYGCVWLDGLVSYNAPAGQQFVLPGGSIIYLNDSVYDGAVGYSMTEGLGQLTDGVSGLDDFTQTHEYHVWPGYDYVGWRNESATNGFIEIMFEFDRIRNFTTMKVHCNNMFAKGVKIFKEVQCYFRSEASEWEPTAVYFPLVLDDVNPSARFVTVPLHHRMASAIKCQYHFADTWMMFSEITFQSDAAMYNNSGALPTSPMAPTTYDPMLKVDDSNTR

B1: DAB0045 (antibody, V domains shown)
VH: QSVEESGGRLVTPGTPLTLTCTVSGFSLSSYSMGWVRQAPGKGLEYIGVINTSDSAYYASWAKGRFTISRTSTTVDLKMTSLTTEDTATYFCARAIGYYGSGWGACYFNLWGQGTLVTVSS
VL: AIKMTQTPSSVSAAVGGTVTVNCQASEDIKSYLAWYQQKPGQPPKLLIYSASTLASGVSSRFKGSGSGTQFTLTISDLECADAATYYCQSYYGTSTTGEYNAFGGGTKVEIK
notes: Variable regions from immunized rabbits
B2: DAB0048 (antibody, V domains shown)
VH: QSVEESGGRLITPGTPLTLTCTASGFSLSIYYMIWVRQAPGKGLEWIGYIWSGSTTDYASWAKGRFTISKTSTTVDLKITSPTTEDTATYFCARVYAGYGYGSDLWGQGTLVTVSS
VL: AAVLTQTPSPVSAAVGGTVSISCQSSQSVYNNNWLAWYQQKPGQPPKLLIYSASTLASGVPSRFKGSGSGTQFTLTISDVQCDDAATYYCAGGYSTNSDKNAFGGGTKVEIK
notes: as for B1
B3: DAB0065 (antibody, V domains shown)
VH: QSVEESGGRLVTPGTPLTLTCTVSGFSLSTSAMSWVRQAPGKGLEWIGMITYGGSGSTWYASWANGRFTISKTSTTVTLKMTSPTTEDTASYFCARVYGTIGSNFYSIYSFNLWGQGTLVTVSS
VL: AAVLTQTPSPVSAAVGGTVSISCQSSKSVYNSNYLSWYQQKPGQPPKLLIYYTSALASGVSSRFKGSGSGTRFTLTISDVQCDDAATYYCAGGYSSSSDNGFGGGTKVEIK
notes: as for B1
B4: DAB0094 (antibody, V domains shown)
VH: QSVEESGGRLVTPGTPLTLTCTVSGFSLSSYSVAWVRQAPGKGLEWIGYISYSGSTYYASWVNGRFTISKTSTTVDLKMTSLTASDTATYFCARDPGYSRDLWGQGTLVTVSS
VL: DVVMTQTPSSVSEPVGGTVTIKCQASQSIGSYLSWYQQKPGQPPKLLIYRASTLASGVSSRFKGSGSGTEFTLTINGLECADAAIYYCQSSYVGVSHGSFGGGTKVEIK
notes: as for B1
B5: DAB0060 (antibody, V domains shown)
VH: QSVEESGGRLVTPGTALTLTCTASGFSLSSYDMSWVRQAPGEGLEWIGTIFTEGSTSCASWVKGRFTISRTSTTVDLKITSPTTEDTATYFCVRGTTSNRLWGQGTLVTVSS
VL: DVVMTQTPASVEAVVGATVTIRCQASESITNYLSWYQQKPGQPPKVLIYYASTLESGVPSRFKGSGSGTQFTLTISDLECADAATYYCQSNYFSSSYSYGNTFGGGTKVEIK
notes: as for B1
B6: DAB0069 (antibody, V domains shown)
VH: QSLEESGGRLVTPGTPLTLTCTASGFSLSNYYMQWVRQAPGKGLEWIGIVYPGSSAYYANWAKGRFTISKTSTTVDLKMTSLTTEDTATYFCAGSSNSVYSFNLWGQGTLVTVSS
VL: AYDMTQTPSSVSAAVGGTVTIKCQASESIYRSLAWYQQKPGQPPKLLIYSASTLTSGVSSRFKGSGSGTEFTLTISDLECADAGTYYCQQGGSFSNIVNTFGGGTKVEIK
notes: as for B1

The first test concerns the target T1, Recombinant mouse DDR2 ECD-Fc (R&D …). Briefly: Octet tandem binning on captured mouse DDR2 ECD-Fc; competitor Ab1 (bound first) DAB0048. As to the method: (§1) Competitive epitope binning experiment was performed by real-time binding assay using Octet (Pall ForteBio). Recombinant mouse DDR2 ECD-Fc (R&D systems, Cat. No. 7479-DR-050) was biotinylated and captured onto streptavidin biosensor tips (Pall ForteBio) as antigen. The antigen captured tips were dipped into 15 or 40 microgram (micro g)/mL of a first set of antibodies for 300 seconds. Then the tips were incubated with 15 or 40 micro g/mL of a second set of antibodies for 300 seconds. To eliminate an effect of antibody dissociation, the antibody concentration in the second set was the same with that of the first set. Result was analyzed by DATA Analysis HT software (Pall ForteBio, Version 10.0.1.7).
(§2) In Table 3, “Abl” indicates antibody in the first set and “Ab2” indicates antibody in the second set.
In general terms: Biolayer interferometry detects binding as a change in optical thickness at a sensor tip.
As to B1, the “Octet response of Ab2” value stood at 1.2.

Turning to B2, the “Octet response of Ab2” value is 0.

On to B3, for which the “Octet response of Ab2” value amounted to 1.65.

As for B4, the “Octet response of Ab2” value is 1.42.

Take B5: the “Octet response of Ab2” value worked out at 0.82.

Take B6: the “Octet response of Ab2” value was found to be 1.57.

The target is the same in another test. Briefly: Octet tandem binning on captured mouse DDR2 ECD-Fc; competitor Ab1 (bound first) DAB0093. As to the method: as §1, §2
As for B1, the “Octet response of Ab2” value came out at 1.13.

Regarding B2, the “Octet response of Ab2” value is -0.0129.

On to B3, for which the “Octet response of Ab2” value was found to be 1.66.

As for B4, the “Octet response of Ab2” value is 1.48.

As to B5, the “Octet response of Ab2” value amounted to 0.857.

Turning to B6, the “Octet response of Ab2” value stood at 1.5.

The target is the same in another test. Briefly: Octet tandem binning on captured mouse DDR2 ECD-Fc; competitor Ab1 (bound first) DAB0060. On the procedure: as §1, §2
Turning to B1, the “Octet response of Ab2” value turned out to be 1.09.

On to B2, for which the “Octet response of Ab2” value came to 1.31.

In the case of B3, the “Octet response of Ab2” value was 1.51.

Take B4: the “Octet response of Ab2” value amounted to 0.0985.

With B5, the “Octet response of Ab2” value was found to be 0.

For B6, the “Octet response of Ab2” value was determined as 1.35.

For the next test the target is unchanged. Briefly: Octet tandem binning on captured mouse DDR2 ECD-Fc; competitor Ab1 (bound first) DAB0045. On the procedure:
as §1, §2
As for B1, the “Octet response of Ab2” value is 0.

For B2, the “Octet response of Ab2” value was 1.32.

For the molecule B3, the “Octet response of Ab2” value was determined as 0.0398.

For B4, the “Octet response of Ab2” value came out at 1.22.

As to B5, the “Octet response of Ab2” value was 0.591.

Take B6: the “Octet response of Ab2” value came out at 0.0335.

A further test has the same target. Briefly: Octet tandem binning on captured mouse DDR2 ECD-Fc; competitor Ab1 (bound first) DAB0069. As to the method: as §1, §2
For B1, the “Octet response of Ab2” value was -0.001.

With B2, the “Octet response of Ab2” value is 1.47.

Take B3: the “Octet response of Ab2” value worked out at 0.0322.

As to B4, the “Octet response of Ab2” value was determined as 1.3.

B5: the “Octet response of Ab2” value was 0.615.

On to B6, for which the “Octet response of Ab2” value was determined as 0.

A further test shares this target. Briefly: Octet tandem binning on captured mouse DDR2 ECD-Fc; competitor Ab1 (bound first) DAB0094. As to the method:
as §1, §2
On to B1, for which the “Octet response of Ab2” value amounted to 1.07.

As to B2, the “Octet response of Ab2” value came out at 1.5.

For B3, the “Octet response of Ab2” value came out at 1.55.

Consider B4, for which the “Octet response of Ab2” value stood at 0.

Turning to B5, the “Octet response of Ab2” value is -0.054.

For another test the target is unchanged. Briefly: Octet tandem binning on captured mouse DDR2 ECD-Fc; competitor Ab1 (bound first) DAB0065. As to the method:
as §1, §2
Consider B1, for which the “Octet response of Ab2” value was -0.0102.

On to B2, for which the “Octet response of Ab2” value stood at 1.49.

With B3, the “Octet response of Ab2” value came to 0.

Consider B4, for which the “Octet response of Ab2” value came to 1.37.

B5: the “Octet response of Ab2” value was determined as 0.766.

Regarding B6, the “Octet response of Ab2” value is -0.0058.
